Residue numbers refer to the chain shown, from its start. Numbers in names are those of the source.
Legend:
[1] = Thermostability, temperature of aggregation (ProteoStat Thermal Shift); assay type: physicochemical; set-up: key to Tagg: temperature in °C
Procedure: The thermostability of proteins in a buffer cocktail of Citric Acid and Dibasic Sodium Phosphate over a pH range of 2.8 to 7.1 (preparation described above in Table E31B) was determined using the ProteoStat® Thermal Shift Stability Kit (Enzo Life Sciences) according to the manufacturer's standard protocol. Briefly, protein solutions (˜10 mg/ml) containing 1× ProteoStat TS Detection Reagent were heated from 25° C. to 95° C. at a rate of 0.5° C. per 30 sec using a real-time PCR (rtPCR) thermocycler (BioRad) equipped with a plate reader (SynergyMx, Biotek) while monitoring the fluorescence with a Texas Red filter.

[2] = SGF digest of 168 nutritive polypeptide library, intact protein by LC-MS/MS; assay type: in vitro ADME; details: for % Intact Protein at 10 min: 168 nutritive polypeptide library SGF digest, LC-MS/MS spectral counts; for % Remaining at 10 min: 168 nutritive polypeptide library, LC-MS/MS
Method in brief: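 Spectral-count ratios (10 min vs 0 min, peak gel fraction plus neighbours) give the percent of each protein left intact after SGF digestion of a pooled, IMAC-purified 168-member recombinant library. Samples were gel-fractionated, trypsinised in-gel and run on Orbitrap nanoLC-MS/MS, requiring two unique peptides at 1% FDR.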

[3] = Intact half-life during simulated gastric fluid (SGF) digestion; details: for SGF Half-life (t½): SGF pH 1.5, pepsin:polypeptide 1:20 w/w, 37° C., intact protein; for Half-life: purified proteins, chip electrophoresis
pH solubility = assay type: physicochemical; details: for pH Range where Protein is >80% detected as Soluble and A650 <1 OD: Low: lower pH; for pH Range where Protein is >80% detected as Soluble and A650 <1 OD: High: upper pH
Procedure: pH Solubility. […] Protein was either lyophilized and then resuspended in buffer cocktail mixtures, or concentrated and then spiked into buffer cocktail mixtures at a final protein concentration of 5 to 30 mg/ml. As a control, protein was also dissolved in a solution of 8 M urea. Protein solutions were shaken for 10 min at room temperature. Turbidity of proteins was determined by measuring the absorbance of protein solutions at 650 nm. The protein solution was then centrifuged for 10 min at 1100×g to pellet undissolved or precipitated protein. The soluble protein fraction (supernatant) was sampled and protein concentration was measured by one or more of the following methods: Coomassie Plus Protein Assay (Pierce), Chip electrophoresis, gel electrophoresis, and/or absorbance at 280 nm. The pH range over which select proteins remained greater than 80% soluble as determined by Bradford and the A650 value are listed in Table E31C.

[4] = tested on: SEQID-00338 kinase activity (AMP + ATP→ADP); assay: Kinase activity of SEQID-00338 (ADP-Glo Max Assay); assay type: biochemical; details: 7 μg/mL, 30 minute reaction at 30° C.
Procedure: The ADP-Glo™ Max Assay was obtained from Promega (Catalog number V7001, Madison, Wis.). Adenosine Monophosphate was obtained from Sigma-Aldrich (Catalog number A1752, St. Louis, Mo.). 5× Kinase Buffer was prepared w/ 1.211 g Tris Base (Catalog number BP152-2, Fisher Bioreagents, Pittsburgh, Pa.), 692 μL 12% hydrochloric acid solution (Catalog number BDH3026-500MLP, VWR, Radnor, Pa.), 10.0 mL 500 mM magnesium chloride (Catalog number BP214-500, Fisher Bioreagents, Pittsburgh, Pa.) and the volume brought to 50 mL with MilliQ water and filtered through 0.22 μm PES filter (Catalog number SCGP00525, Millipore, Billerica, Mass.) into a sterile 50 mL tube.
Twelve his-tag purified mutant proteins and the wild-type protein at 35 μg/mL in Tris buffer were serially diluted to 7.0 and 1.4 μg/mL. Prepared kinase reaction mix at 0.5 mM AMP/0.5 mM ATP to test for activity and at 0 mM AMP/0 mM ATP to assay background activity by diluting 5× Kinase Buffer with appropriate volumes of 10 mM AMP and 10 mM ATP in MilliQ water. Duplicate reactions were prepared by mixing 9 μL of the reaction mixture with 6 μL of diluted SEQID-00338, mixing by pipetting up and down and dispensing 5 μL into a 384-well white OptiPlate (PerkinElmer, Waltham, Mass.). An ADP standard curve was prepared by serially diluting 4 mM ADP in MilliQ water and adding kinase buffer to 1× for a standard at 0.0005, 0.001, 0.005, 0.01, 0.05, 0.1, 0.5, 1, 2, 3, and 4 mM ADP. The plate was covered with a foil plate seal and incubated at 30° C. for 30 min. Following the kinase reaction, 5 μL of ADP-Glo™ Reagent was added to each well. The plate was sealed with a foil plate seal and placed on a horizontal plate shaker at 450 rpm for 2 minutes at room temperature. The plate was removed from the plate shaker and incubated at room temperature for 40 minutes. The plate was then centrifuged for 15 seconds at 1109×rcf and 10 μL of ADP-Glo™ Max Detection Reagent was added. The plate was sealed with a foil plate seal and shaken on a horizontal plate shaker at 450 rpm at room temperature for 2 minutes. The plate was then removed from the plate shaker and incubated at room temperature for 60 minutes. The plate was centrifuged for 15 seconds at 1109×rcf and the luminescence read on an EnspireAlpha plate reader (PerkinElmer, Waltham, Mass.).
The ADP standard curve was used to determine the concentration of ADP in sample wells in the presence or absence of substrate. Concentrations were determined by performing a non-linear 4 parameter logistic on the X=log(X) transformed ADP standard luminescence values. […] Where the background concentration of ADP in the absence of substrate was calculable the average of those values were subtracted from the calculated ADP concentration in the substrate incubated wells. Activity knock out was calculated by percentage activity relative to purified wild-type protein at the same concentration.

B1: SEQID-00511: protein of the 168 nutritive polypeptide library (protein)
chain: MVLFGFGKKKSLPKPEEALPGRDRVMSVPDRHYINGNPLKPPFPEGMEQAVFGLGCFWGAERKFWQQQGVFSTAVGYAGGYTKNPTYEEVCSGMTGHTEVVLVVFDPKVISYTDLLKLFWESHNPTQGMRQGNDTGTQYRSAIYTYSDEQQRLALASRDRYQQALSAASYGEITTEIAPAQEFYYAEAYHQQYLGKNPNGYCGLGGTGVGCPAMTETSV
modifications: Arthrospira platensis C1
notes: protein of the 168 nutritive polypeptide library
Work on B1 yielded a Tagg ([1]; pH 6.0) of 39.5, a Tagg ([1]; pH 6.5) of 45.5 and a Tagg ([1]; pH 7.1) of 42. For the same molecule, the “% Intact Protein at 10 min” value [2] was 4.3%, the “% Remaining at 10 min” value [2] was 4.3% and the “SGF Half-life (t½)” value [3] was 18 s. For the same molecule, the “Half-life” value [3] was 18 s, the “pH Range where Protein is >80% detected as Soluble and A650 <1 OD: Low” value (“pH Range where Protein is >80% detected … Low” below) (pH solubility) was 5.6 and the “pH Range where Protein is >80% detected as Soluble and A650 <1 OD: High” value (shortened to “pH Range where Protein is >80% detected … High”) (pH solubility) was 7.1.

B2: SEQID-00510: nutritive polypeptide naturally produced in Turkey, recombinantly expressed in E. coli (protein)
chain: MVPIAEKMAEKQEEPSNTQNGEPDNAEEGEGKKKKKVKREDLPPFEIVTGERLPAIFFKFQFRNVEYSSGRNKTFLCYVVETQGKESTTSRGYLEDEHAASHAEIAFFNTILPKCESSLRYNITWYVSSSPCVTCADRISETLRKNKNLRLTIMVGRLFMWEEPEMQAALKKMKSAGCKLRIMKPQDFEYVWQNFVEQEEGEEAKAFVPWEDIQENFQYYEEKLAEILQ
modifications: Meleagris gallopavo
notes: nutritive polypeptide naturally produced in Turkey, recombinantly expressed in E. coli
In the case of B2, the “Tagg (pH 7.1)” value ([1]; Table E31D, heated 25° C. to 95° C.) is reported as 57.5, the “% Intact Protein at 10 min” value [2] is reported as 13.4% and the “% Remaining at 10 min” value [2] is reported as 13.4%. For the same molecule, the “SGF Half-life (t½)” value [3] was 18 s, the “Half-life” value [3] was 18 s and the “pH Range where Protein is >80% detected … Low” value (pH solubility) was 6.5. The “pH Range where Protein is >80% detected as Soluble and A650 <1 OD: Other” value (pH solubility; other pH) was 2.8 and the “pH Range where Protein is >80% detected … High” value (pH solubility) was 7.1.

B3: SEQID-00622: protein of the 168 nutritive polypeptide library (protein, listed as Oryza sativa)
chain: MASEGAVSPAFAYTVVYVKDVAKSAAFYSAAFGYTVRRLDQSHKWAELESGTTTIAFTPLHQRETDALTGAVQLPDSAGERGPVEICFDYADVDAAYRRAVDSGAVPVSPPEQKSWGQKVGYVRDIDGIIVRMGSHVRA
modifications: source: /note="subsp. japonica"
notes: as for B1
In the case of B3, the Tagg ([1]; pH 2.8) is reported as 58.5, the Tagg ([1]; pH 3.7) is reported as 42 and the Tagg ([1]; pH 3.9) is reported as 42. The Tagg ([1]; pH 4.3) was 43.5, the Tagg ([1]; pH 4.6) was 43.5 and the Tagg ([1]; pH 5.0) was 42.5. For the same molecule, the Tagg ([1]; pH 5.6) was 45.5, the Tagg ([1]; pH 6.0) was 46 and the Tagg ([1]; pH 6.5) was 47. For the same molecule, the Tagg ([1]; pH 7.1) was 95, the “% Intact Protein at 10 min” value [2] was 43.6% and the “% Remaining at 10 min” value [2] was 43.6%. The “SGF Half-life (t½)” value [3] was 396 s, the “Half-life” value [3] was 396 s and the “pH Range where Protein is >80% detected … Low” value (pH solubility) was 2.8. The “pH Range where Protein is >80% detected … High” value (pH solubility) was 7.1.

B4: R134M: single amino acid mutant of SEQID-00338, substrate binding position 134 (protein, listed as Saccharomyces cerevisiae)
chain: MSSSESIRMVLIGPPGAGKGTQAPNLQERFHAAHLATGDMLRSQIAKGTQLGLEAKKIMDQGGLVSDDIMVNMIKDELTNNPACKNGFILDGFPRTIPQAEKLDQMLKEQGTPLEKAIELKVDDELLVARITGMLIHPASGRSYHKIFNPPKEDMKDDVTGEALVQRSDDNADALKKRLAAYHAQTEPIVDFYKKTGIWAGVDASQPPATVWADILNKLGKD
modifications: source: /note="strain ATCC 204508 / S288c"
With B4 the “AVG percent activity relative to purified wild-type protein” value [4] was 0.3%.

B5: R42G: single amino acid mutant of SEQID-00338, position 42 (protein, listed as Saccharomyces cerevisiae)
chain: B4 chain with R42G, M134R
modifications: source: /note="strain ATCC 204508 / S288c"
With B5 the “AVG percent activity relative to purified wild-type protein” value [4] was 1.2%.

B6: R42Q: single amino acid mutant of SEQID-00338, position 42 (protein, listed as Saccharomyces cerevisiae)
chain: B4 chain with R42Q, M134R
modifications: source: /note="strain ATCC 204508 / S288c"
With B6 the “AVG percent activity relative to purified wild-type protein” value [4] was 1.2%.

B7: R42K: single amino acid mutant of SEQID-00338, position 42 (protein, listed as Saccharomyces cerevisiae)
chain: B4 chain with R42K, M134R
modifications: source: /note="strain ATCC 204508 / S288c"
For B7, the “AVG percent activity relative to purified wild-type protein” value [4] was 2.2%.

B8: R42A: single amino acid mutant of SEQID-00338, substrate binding position 42 (protein, listed as Saccharomyces cerevisiae)
chain: B4 chain with R42A, M134R
modifications: source: /note="strain ATCC 204508 / S288c"
With B8 the “AVG percent activity relative to purified wild-type protein” value [4] was 0.9%.

B9: R42I: single amino acid mutant of SEQID-00338, position 42 (protein, listed as Saccharomyces cerevisiae)
chain: B4 chain with R42I, M134R
modifications: source: /note="strain ATCC 204508 / S288c"
For B9, the “AVG percent activity relative to purified wild-type protein” value [4] was 1.5%.

B10: R134Y: single amino acid mutant of SEQID-00338, substrate binding position 134 (protein, listed as Saccharomyces cerevisiae)
chain: B4 chain with M134Y
modifications: source: /note="strain ATCC 204508 / S288c"
With B10 the “AVG percent activity relative to purified wild-type protein” value [4] was 0.2%.

B11: R42L: single amino acid mutant of SEQID-00338, position 42 (protein, listed as Saccharomyces cerevisiae)
chain: B4 chain with R42L, M134R
modifications: source: /note="strain ATCC 204508 / S288c"
In the case of B11, the “AVG percent activity relative to purified wild-type protein” value [4] is reported as 1.7%.

B12: R42C: single amino acid mutant of SEQID-00338, position 42 (protein, listed as Saccharomyces cerevisiae)
chain: B4 chain with R42C, M134R
modifications: source: /note="strain ATCC 204508 / S288c"
For B12, the “AVG percent activity relative to purified wild-type protein” value [4] was 1.8%.

From patent US20160228506A1, “Compositions and Formulations for Prevention and Reduction of Tumorigenesis, Cancer Cell Proliferation and Invasion, and Methods of Production and Use Thereof in Cancer Treatment” (PRONUTRIA, INC., priority 2013, published 2016)
